Experimental findings from paper PMC9060465 (2022) are described below.

In experiment [1] the target is T1, human GIPR expressed in HEK293 cells (human, UniProt P48546 22-466).
T1 chain: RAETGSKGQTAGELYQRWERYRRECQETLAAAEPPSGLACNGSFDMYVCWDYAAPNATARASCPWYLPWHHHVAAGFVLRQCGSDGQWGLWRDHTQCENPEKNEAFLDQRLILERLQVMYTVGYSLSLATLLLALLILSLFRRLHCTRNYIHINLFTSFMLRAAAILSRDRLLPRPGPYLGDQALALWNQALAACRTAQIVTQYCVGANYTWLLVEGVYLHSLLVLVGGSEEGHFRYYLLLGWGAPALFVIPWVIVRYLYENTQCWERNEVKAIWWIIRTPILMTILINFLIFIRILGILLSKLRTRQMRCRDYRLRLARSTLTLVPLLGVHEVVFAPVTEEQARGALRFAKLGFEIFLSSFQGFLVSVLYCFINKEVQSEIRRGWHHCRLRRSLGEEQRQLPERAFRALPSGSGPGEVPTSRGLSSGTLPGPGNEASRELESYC
The experiment can be described thus: [125I]GIP competition, cell membranes.

In experiment [2] the target is T1, human GIPR expressed in HEK293 cells. The experiment can be described thus: [125I]GIP competition, cell membranes.
Experiment [3] has as its target T2, human GLP-1R expressed in HEK293 cells (human, UniProt P43220 24-463).
T2 chain: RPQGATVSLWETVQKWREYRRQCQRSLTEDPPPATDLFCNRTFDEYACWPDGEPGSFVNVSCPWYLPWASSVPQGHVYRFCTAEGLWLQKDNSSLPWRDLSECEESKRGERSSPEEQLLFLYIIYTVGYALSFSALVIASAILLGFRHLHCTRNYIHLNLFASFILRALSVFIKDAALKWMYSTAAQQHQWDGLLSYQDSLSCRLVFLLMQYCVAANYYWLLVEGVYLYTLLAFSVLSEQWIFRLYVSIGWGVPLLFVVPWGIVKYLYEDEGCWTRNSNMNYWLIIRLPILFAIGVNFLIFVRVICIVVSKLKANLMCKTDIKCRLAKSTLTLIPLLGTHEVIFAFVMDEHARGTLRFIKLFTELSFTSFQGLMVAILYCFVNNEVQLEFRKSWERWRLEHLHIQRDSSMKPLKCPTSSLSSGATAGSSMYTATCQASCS
The experiment in a line: [125I]GLP-1 competition, cell membranes.

Experiment [4] deals with T3, isolated extracellular domain (ECD) of human GLP-1R, amino acids 24 to 145 (human, UniProt P43220 24-145).
T3 chain: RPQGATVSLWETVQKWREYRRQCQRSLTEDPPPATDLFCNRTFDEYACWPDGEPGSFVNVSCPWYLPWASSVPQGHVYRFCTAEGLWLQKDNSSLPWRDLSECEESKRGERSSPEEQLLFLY
The experiment can be described thus: SPR; kinetic fit. A general note: SPR reads the build-up and loss of mass on a sensor chip optically.

Experiment [5] addresses T2, human GLP-1R expressed in HEK293 cells. The experiment in a line: [125I]GLP-1 competition, cell membranes.

As a reminder, the Ki is the dissociation constant of the complex between target and ligand, obtained from inhibition or displacement. Lower therefore signals tighter binding. By Kd is commonly meant the concentration at which binding is half-saturated. Low values mean tighter binding, high ones weaker binding.

Where two headings read alike, the source gives them in different places. Where no end group is shown, it is not given here. [ ]: non-standard residue; d: D form. Aib = CC(C)(N)C(=O)O

Turning to YAEGTFTSDVSSYLEGQAAKEFIAWLVKGR (not fully specified (C-terminus)) [GLP-1H7Y], the Ki in experiment [1] was greater than 128 nM.
For the molecule YAEGTFTSDYSI[Aib]LDKIAQKAFVQWLIAGGPSSGAPPPS [tirzepatide analog lacking the lipid moiety (TZP^ΔC20)], the Ki in experiment [2] is 0.0235 nM; in experiment [3] it was 2.67 nM. Besides, the dissociation constant Kd in experiment [4] is 70.6 nM.
YAEGTFTSDYSIALDKIAQKAFVQWLIAGGPSSGAPPPS (not fully specified) [tirzepatide (LY3298176)]: the affinity in experiment [2] corresponds to a Ki of 0.087 nM.
As for HAEGTFTSDYSI[Aib]LDKIAQKAFVQWLIAGGPSSGAPPPS (not fully specified (residue 2, C-terminus); ends and bridges not checked), the Ki in experiment [5] was found to be 0.599 nM; in experiment [1], 0.416 nM.
